Results taken from the supplement of paper PMC10567573.

B1: VENTX (parent)
chain: VFQHHQYLSPLERKRLAREMQLSE
B2: ZNF511 (parent)
chain: FDALDDYEHHYHTLHGNVCSFCKR

Variants of: B1
Assay: protein stability index of a GFP-peptide fusion (GPS, HEK-293T) (PSI 1-6); higher = more stable
Conditions: c terminus: a fixed tail appended
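Further: lentivirally expressed fusions sorted by FACS into six bins by GFP to DsRed ratio, PSI derived from sequencing read proportions per bin multiplied by bin number.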

Protein stability index, by site and new letter:
H5: N 2.83 | T 4.21 | S 2.63 | K 2.94 | P 3.21 | M 3.19 | A 2.5 | I 2.08 | E 3.71 | G 3.71 | D 3.47 | L 2.42 | F 2.96 | W 1.96 | V 2.78 | C 2.17 | Y 2.43 | Q 3.01 | R 1.93
K14: A 2.67
V1: M 2.38 | S 3.1 | L 3.38 | T 2.88 | E 2.49 | H 2.34 | I 2.36 | R 2.42 | N 2.9 | D 2.83 | A 2.28 | C 2.45 | Q 2.19 | W 1.92 | G 2.09 | Y 2.36 | P 2.35 | K 2.6 | F 2.1
P10: H 2.73 | M 2.23 | A 2.62 | D 2.31 | Q 2.46 | V 2.63 | N 2.82 | Y 2.54 | F 1.91 | G 2.23 | L 2.67 | E 2.91 | I 2.42 | W 1.96 | K 2.52 | C 2.32 | S 2.89 | T 1.86
L8: C 2.22 | S 2.09 | K 3.6 | E 3.66 | A 2.65 | Y 2.32 | M 2.55 | I 3.02 | D 3.31 | F 2.62 | W 1.83 | V 2.41 | T 2.4 | R 2.25 | G 2.42 | Q 2.89 | N 2.72 | P 2.52 | H 2.75
E12: D 2.39 | I 2.66 | A 1.96 | H 2.21 | G 2.07 | M 2.74 | V 2.74 | F 2.58 | K 1.82 | Y 2.19 | L 2.13 | Q 2.33 | N 2.56 | C 1.98 | P 2.99 | S 2.74 | W 1.8 | R 2.45 | T 2.08
R13: I 2.26 | M 2.43 | K 2.62 | T 2.32 | E 2.44 | C 2.45 | Q 2.94 | H 2.07 | V 2.4 | F 1.92 | L 2.66 | D 2.56 | N 3.31 | Y 1.77 | A 2.32 | P 2.06 | W 1.87 | G 1.83 | S 2.44
H4: K 2.5 | P 3.27 | N 2.85 | S 2.91 | E 3.52 | M 2.31 | I 2.43 | T 3.06 | A 3.37 | Y 2.21 | W 2.03 | V 2.7 | G 3.26 | F 1.69 | L 2.89 | Q 3.5 | C 2.56 | R 2.37 | D 3.68
L11: D 2.97 | R 2.31 | E 3.41 | T 2.93 | V 2.53 | N 3.2 | Y 2.66 | S 2.64 | K 3.03 | M 2.65 | G 1.95 | H 2.77 | I 2.4 | P 2.1 | A 3 | C 2.4 | W 2.84 | Q 2.73 | F 2.42
F2: Y 3.01 | R 3.02 | N 2.97 | Q 4 | L 3.22 | D 4.44 | H 3.38 | M 3.1 | E 4.48 | T 3.05 | V 2.55 | G 3.57 | A 2.11 | C 3.08 | I 3.12 | K 3.61 | P 4.18 | S 3.91 | W 2.42
S9: D 2.73 | H 2.38 | I 1.69 | C 2.17 | M 2.33 | K 2.39 | G 2.38 | T 2.21 | P 2.88 | E 2.86 | N 2.59 | L 2.22 | W 1.52 | R 2.64 | F 1.99 | Y 2.21 | Q 3.25 | V 2.08 | A 2
Q3: W 1.79 | H 2.11 | R 2.17 | T 2.96 | L 1.29 | E 3.84 | F 1.66 | Y 2.56 | V 2.78 | G 2.82 | C 1.85 | D 4.04 | P 2.98 | S 3.81 | A 3.03 | M 2.27 | N 3.05 | I 2.07 | K 3
Y7: A 2.98 | P 3.33 | M 3.04 | S 2.68 | I 2.54 | R 2.42 | T 3.49 | H 2.33 | W 2.11 | D 3.84 | F 2.99 | N 2.36 | C 2.5 | L 2.5 | E 3.22 | V 3.48 | K 2.71 | Q 3.27 | G 2.34
Q6: M 2.56 | Y 2.09 | W 2.17 | P 2.09 | N 3.05 | F 1.84 | E 3.66 | I 2.17 | C 1.83 | H 3.06 | G 2.51 | A 2.75 | V 2.42 | L 2.02 | D 3.23 | S 2.3 | K 2.69 | T 2.75 | R 2.47

Variants of: B2
Assay: as above
Conditions: c terminus: a fixed tail appended

Protein stability index: each site, then its substitutions
R24: L 3.35 | A 3.58 | W 2.95 | C 3.58 | I 3.08 | G 4.01 | Q 4.25 | V 3.1 | P 3.17 | D 4.06 | S 3.8 | Y 2.88 | T 3.84 | K 4.25 | H 3.79 | E 4.25 | M 3.6 | N 4.02 | F 2.13
C22: F 2.2 | N 3.22 | L 2.11 | G 2.37 | Y 2.39 | V 3.04 | S 3.31 | R 2.73 | H 2.6 | P 3 | Q 3.15 | A 3.11 | M 2.85 | W 1.96 | D 3.29 | K 3.02 | T 2.59 | E 3.2 | I 2.26
K23: C 3.25 | H 3.07 | P 3 | R 4.04 | A 3.47 | T 3.25 | M 3.92 | G 4.15 | S 3.6 | I 2.89 | W 1.93 | D 3.45 | E 3.97 | L 3.03 | V 3.28 | Q 3.71 | N 3.96 | F 2.67 | Y 2.59
S20: P 3.54 | Q 3.85 | L 3.35 | T 3.81 | Y 4.29 | R 3.27 | K 3.76 | V 3.64 | N 3.74 | M 4.04 | W 2.63
F21: W 4.32 | C 3.59 | S 3.91 | V 4.45 | Q 4.56 | G 4.35 | H 4 | T 4.28 | E 4.18 | D 4.62 | I 4.22 | N 4.15 | L 4.01 | Y 3.64 | A 4.3 | K 4.2 | R 4.55 | P 3.49 | M 3.71
